The text below walks through data of PMC10511321.

Usually Kd stands for the equilibrium constant for the complex coming apart. As usually defined, the koff is a measure of how fast the partners let go of each other. By kon is commonly meant a measure of how fast the partners come together.

Test [1] addresses SARS-CoV-2 Omicron BN.1 S glycoprotein, cell-surface expressed (Δ19) (SARS-CoV-2) (UniProt P0DTC2).
For test [2], the target named is SARS-CoV-2 Omicron BQ.1.1 S glycoprotein, cell-surface expressed (Δ19) (SARS-CoV-2) (UniProt P0DTC2).
Test [3] deals with SARS-CoV-2 Omicron XBB.1 S glycoprotein, cell-surface expressed (Δ19) (SARS-CoV-2) (UniProt P0DTC2).
In test [4] the target is SARS-CoV-2 Omicron BA.2.75.2 RBD, construct used for SPR (SARS-CoV-2) (UniProt P0DTC2). The test is described as follows: SPR.

For the substance “sotrovimab immunoglobulin G (IgG) (antibody)”, the values for the neutralization of S VSV pseudovirus, fold reduction in potency relative to Wu in test [1], in test [2] and in test [3] were 778 fold, 94 fold and 6.5 fold, respectively.
In test [4], “S309 Fab (fragment antigen-binding region of the S309 antibody, the parent antibody for sotrovimab), used for SPR” returned a Kd of 0.86 nM, a koff of 2.8e-05 s⁻¹ and a kon of 25500 M⁻¹ s⁻¹.
